B1: VPS39 (parent)
chain: LRLENNHCHIEESEHVLKKAHKYS
B2: DVL3 (parent)
chain: YNPHPGFPELGYSYGGGSASSQHS

Variants of: B1
Assay: protein stability index of a GFP-peptide fusion (GPS, HEK-293T) (PSI 1-6); higher = more stable
Settings: c terminus: a fixed tail appended
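Also: lentivirally expressed fusions sorted by FACS into six bins by GFP to DsRed ratio, PSI derived from sequencing read proportions per bin multiplied by bin number.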

Protein stability index of substitutions, site by site:
L1: I 3.44
E14: S 2.42 | R 2.06 | G 2.56 | Y 1.88 | V 2.9
L17: P 2.14 | G 2.84 | E 2.88 | I 2.35 | R 2.8
C8: I 2.15
E4: N 3.92 | H 3.32 | P 2.83 | S 2.71 | W 2.44
S24: T 2.07 | V 1.83 | L 2.08
H15: V 1.5 | W 2.09
I10: N 2.73 | L 1.9 | W 2.43 | R 3.01 | Q 3 | P 3.1
H9: W 2.18 | P 1.8 | E 1.59 | K 3.59
V16: D 3.13 | E 2.83 | A 3.01
K22: Y 2.55 | L 1.99 | D 3.15 | H 2.58
N5: P 2.29 | W 1.74
H21: D 2.73 | Y 2.25
A20: F 2.24 | Y 1.92 | E 3.06 | D 2.73
R2: F 2.62 | V 2.44 | H 3.55 | N 3.55 | Q 4.11 | I 2.54
K18: F 2.09 | N 2.6
H7: E 2.38 | C 2.15 | M 2.46 | V 2.35 | G 1.97 | W 2.17
E12: N 2.44 | P 1.93
E11: I 2.12 | K 2.79 | M 2.31
Y23: C 2.25
L3: W 3.01
K19: G 2.21 | W 1.34 | H 1.91
N6: I 2.33 | S 2.55
S13: H 2.18 | C 2.06 | K 2.92 | D 2.49 | Y 2.75

Variants of: B2
Assay: as above
Settings: c terminus: a fixed tail appended

Protein stability index of substitutions, site by site:
P8: A 2.37 | R 2.7 | H 2.38 | S 2.73 | G 3.26 | L 2.12 | C 2.54 | T 3.11
H23: Y 2.92 | D 3.14 | R 3 | P 2.79 | F 2.37 | A 2.62 | G 2.78 | L 2.86 | W 2.19 | N 2.99
S13: Y 2.19 | P 2.58 | G 2.55 | Q 3 | K 2.94 | W 2.53 | M 2.67 | F 1.95
Y14: W 2.76 | N 3.59 | I 2.64 | G 3.69 | K 2.95 | R 3.05 | F 2.4 | C 3.1 | Q 3.15
F7: L 3.35 | M 3.19 | N 3.38 | Q 3.23 | H 2.98 | I 2.87 | C 2.85 | Y 2.68 | D 2.44 | P 3.44 | K 3.68 | G 3 | T 3.44
G16: P 2.74 | M 2.79 | D 3.4 | Y 2.32 | I 2 | Q 3.02 | A 3.45 | V 1.89 | W 2.04 | F 1.79 | R 2.63 | E 3.61
A19: Q 2.99 | C 2.19 | T 2.53 | R 3.04 | M 2.57 | F 2.09 | G 3.57 | N 3.07 | Y 2.4 | P 2.74 | S 2.79 | W 1.4
E9: Q 2.04 | S 1.59 | I 1.18 | Y 1.14 | N 2.46 | K 1.8 | R 2.44 | L 3.13 | M 2.69 | P 3.58 | A 2.3
Q22: S 2.71 | C 2.13 | A 2.23 | V 2.33 | M 2.08 | K 3.4 | N 2.6 | P 2.98
P5: Q 3.26 | S 2.64 | V 2.41 | H 2.36 | A 2.58 | F 2.44 | K 2.31 | C 2.22
H4: D 3.9 | M 2.69 | T 2.34 | I 2.51 | G 2.01 | L 2.77 | S 2.1 | V 2.75 | W 2.44 | P 2.29 | N 2.73 | C 2.58 | R 2.8
P3: D 2.81 | K 3.43 | W 2.51 | C 3.32 | A 3.07 | N 2.79 | H 2.95 | V 3.08 | Y 3.18 | G 2.19 | I 2.86 | L 3.46
S18: I 2.49 | W 1.65 | A 2.94 | D 2.85 | G 2.68 | E 3.19 | K 3.09 | L 1.83 | P 2.71
N2: G 3.06 | M 2.55 | R 3.09 | S 2.72 | L 2.16 | K 3.28 | H 3.33 | A 1.96 | P 1.97 | Q 2.33 | I 2.37 | F 2.32 | W 2.48
S21: M 2.89 | L 2.24 | A 3.1 | N 2.62 | P 2.88 | I 2.56 | G 2.61 | W 1.95 | R 2.86 | C 2.1 | V 3.41 | F 1.88
G6: S 2.69 | R 2.46 | T 2.28 | C 2.53 | A 2.78 | I 2.38 | D 3.14 | W 1.74 | Q 3.44
G15: H 2.3 | S 2.86 | R 2.33 | E 3.33 | K 2.91 | Q 2.63 | D 3.37 | V 2.22 | M 2.57 | C 2.11 | P 2.9 | N 2.63
G11: K 3.13 | M 3.03 | I 2.24 | H 2.46 | Q 3.29 | C 2.3 | N 2.72 | E 3.4 | A 2.76 | L 2.04 | V 2.44
S20: E 2.95 | H 2.59 | L 2.2 | I 2.08 | T 2.58 | K 2.65 | N 2.74 | A 3.01 | F 2 | Y 1.79 | P 2.89
L10: V 3.17 | D 3.55 | N 3.74 | C 3.06 | W 1.3 | Q 3.18 | P 3.04 | H 3.4 | A 3.17 | S 3.16 | I 2.6 | G 2.94 | E 4.41
Y12: N 3.96 | M 3.29 | L 2.03 | P 1.99 | C 2.27 | D 4.19 | V 1.74 | K 2.47 | W 2.19 | R 2.68 | T 3.01 | G 3.51
S24: A 2.33 | Y 2.26 | R 1.87 | I 2.56 | M 2.44 | E 2.41 | H 2.33 | N 2.42 | G 3.11
Y1: S 3.75 | E 4.73 | W 3.49 | K 3.94 | R 3.52 | H 3.39 | M 3.37 | F 2.16 | D 4.18 | P 4.24 | N 4.11 | A 4.36
G17: A 2.73 | W 1.69 | L 2.14 | E 3.05 | I 1.96 | K 2.83 | M 2.25 | S 3.29 | F 1.77

Reference: the supplement of paper PMC10567573
